In FireProtDB (doi:10.1093/hmg/ddv370):
Several values for one entry are separate records, joined by “and”; a condition that tells them apart may be missing. Identical values can stand only once.

Details: Homo sapiens; pH 7.5; Thermal; CD; Tris-HCl; KCl; transition: 2; whole UniProt chain shown

B1: Guanylyl cyclase-activating protein 1 wild type, P43080 (protein)
chain: MGNVMEGKSVEELSSTECHQWYKKFMTECPSGQLTLYEFRQFFGLKNLSPSASQYVEQMFETFDFNKDGYIDFMEYVAALSLVLKGKVEQKLRWYFKLYDVDGNGCIDRDELLTIIQAIRAINPCSDTTMTAEEFTDTVFSKIDVNGDGELSLEEFIEGVQKDQMLLDTLTRSLDLTRIVRRLQNGEQDEEGADEAAEAAG
Tm: 50.1 °C and 51.5 °C
